From patent US20060172386A1

How the values were obtained:
[1] = biological target: recombinant extracellular domain of FGFR-2c; test: SPR (BIACORE 2000), FGF-20 fixed on CM5 chip, receptor extracellular domain as analyte
[2] = biological target: recombinant extracellular domain of FGFR-3c; test: as above

- Kd [1]: 28.1 nM
- koff [1]: 0.0167 s⁻¹
- kon [1]: 595000 M⁻¹ s⁻¹
- Kd [2]: 217 nM
- koff [2]: 0.0247 s⁻¹
- kon [2]: 115000 M⁻¹ s⁻¹
Substance: Recombinant FGF-20 (from UniProt Q9EST9 1-212) (ligand)
